From publication PMC10236585

Target: mu-FGF5-Flag (FGF5 p. L191S) (rabbit)
Assay: co-IP; HEK293T cells co-transfected with FGFR1 and FGF5-Flag or mu-FGF5-Flag; lysed 48 h later (50 mM Tris pH 7.4, 150 mM NaCl, 0.2 mM EDTA, 2 mM EGTA, 0.5% Igepal CA-630, 10% glycerol); anti-Flag IP resin overnight at 4 °C; immunoblot with anti-FGFR1 and anti-Flag; densitometry of FGFR1 in the IP normalised to FGF5 or mu-FGF5

## FGFR1 (fibroblast growth factor receptor 1)
  fold decline in binding ability to FGFR1 against FGF5: 0.49 fold
